For orientation: Km means the substrate concentration at which the rate is half of its maximum.

What all share (assay): radiometric filter prenylation assay, Lineweaver-Burk
Common to all, as to format: biochemical, Arabidopsis thaliana

Substrate in series [1]: CC(C)=CCC/C(C)=C/CC/C(C)=C/CC/C(C)=C/COP(=O)(O)OP(=O)(O)O
The settings on record: co-substrate GFP-BD-CVIQ, 50 mM Hepes pH 7.5, 20 mM MgCl2, 5 mM ZnCl2, 5 mM DTT, 0.1% Zwittergent, 30°C, labelled compound. The text has this: (§1) radiometric filter prenylation assay, Lineweaver-Burk on PFT (protein farnesyltransferase; PLP + ERA1)

Substrate in series [2]: CC(C)=CCC/C(C)=C/CC/C(C)=C/CO[P@@](=O)(O)OP(=O)(O)O
The settings on record: co-substrate GFP-BD-CVIQ, 50 mM Hepes pH 7.5, 20 mM MgCl2, 5 mM ZnCl2, 5 mM DTT, 0.1% Zwittergent, 30°C, labelled compound.
Source text: as §1

Substrate in series [3]: CC(C)=CCC/C(C)=C/CC/C(C)=C/CC/C(C)=C/COP(=O)(O)OP(=O)(O)O
The settings on record: co-substrate GFP-BD-CVIL, 50 mM Hepes pH 7.5, 20 mM MgCl2, 5 mM ZnCl2, 5 mM DTT, 0.1% Zwittergent, 30°C, labelled compound. The source says: (§2) radiometric filter prenylation assay, Lineweaver-Burk on PGGT1 (protein geranylgeranyltransferase type 1; PGGT I; PLP + GGB)

Substrate in series [4]: CC(C)=CCC/C(C)=C/CC/C(C)=C/CO[P@@](=O)(O)OP(=O)(O)O
The conditions noted are these: co-substrate GFP-BD-CVIL, 50 mM Hepes pH 7.5, 20 mM MgCl2, 5 mM ZnCl2, 5 mM DTT, 0.1% Zwittergent, 30°C, labelled compound.
Source text: as §2

B1: PFT (protein farnesyltransferase; PLP + ERA1) (Arabidopsis thaliana) (protein)
chain 1: PVVTRLIRLKCVGLRLDRSGLNRRICHGGHGESTRRRVMEELSSLTVSQREQFLVENDVFGIYNYFDASDVSTQKYMMEIQRDKQLDYLMKGLRQLGPQFSSLDANRPWLCYWILHSIALLGETVDDELESNAIDFLGRCQGSEGGYGGGPGQLPHLATTYAAVNALVTLGGDKALSSINREKMSCFLRRMKDTSGGFRMHDMGEMDVRACYTAISVASILNIMDDELTQGLGDYILSCQTYEGGIGGEPGSEAHGGYTYCGLAAMILINEVDRLNLDSLMNWAVHRQGVEMGFQGRTNKLVDGCYTFWQAAPCVLLQRLYSTNDHDVHGSSHISEGTNEEHHAHDEDDLEDSDDDDDSDEDNDEDSVNGHRIHHTSTYINRRMQLVFDSLGLQRYVLLCSKIPDGGFRDKPRKPRDFYHTCYCLSGLSVAQHAWLKDEDTPPLTRDIMGGYSNLLEPVQLLHNIVMDQYNEAIEFFFKAA
chain 2: not shown
notes: alpha/beta heterodimer co-expressed in E. coli Rosetta (pETDuet-1); N-terminal FLAG on PLP, N-terminal 6xHis on ERA1 (MHHHHHH-PVVTRLI from primer), tags kept; Co2+-IMAC purified
B1: the figures for the Km in series [1] and in series [2] were 0.7 ± 0.3 µM and 0.2 ± 0.1 µM, respectively.

B2: PGGT1 (protein geranylgeranyltransferase type 1; PGGT I; PLP + GGB) (Arabidopsis thaliana) (protein)
chain 1: SETAVSIDSDRSKSEEEDEEEYSPPVQSSPSANFEKDRHLMYLEMMYELLPYHYQSQEINRLTLAHFIISGLHFLGARDRVDKDVVAKWVLSFQAFPTNRVSLKDGEFYGFFGSRSSQFPIDENGDLKHNGSHLASTYCALAILKVIGHDLSTIDSKSLLISMINLQQDDGSFMPIHIGGETDLRFVYCAAAICYMLDSWSGMDKESAKNYILNCQSYDGGFGLIPGSESHGGATYCAIASLRLMGYIGVDLLSNDSSSSIIDPSLLLNWCLQRQANDGGFQGRTNKPSDTCYAFWIGAVLKLIGGDALIDKMALRKFLMSCQSKYGGFSKFPGQLPDLYHSYYGYTAFSLLEEQGLSPLCPELGLPLLAAPGI
chain 2: not shown
notes: alpha/beta heterodimer co-expressed in E. coli Rosetta (pETDuet-1); N-terminal FLAG on PLP, N-terminal 6xHis on GGB (MHHHHHH-SETAVSI from primer), tags kept; Co2+-IMAC purified
Turning to B2, the Km stood at 0.8 ± 0.1 µM in series [3] and 0.6 ± 0.5 µM in series [4].

These data come from PMC3017772, “The CaaX specificities of Arabidopsis protein prenyltransferases explain era1 and ggb phenotypes” (BMC Plant Biology, 2010).
